Assay results: paper PMC7863765

Legend:
[1] = target: phosphorylated SARS-CoV-2 N construct pN.1-211 (SARS-CoV-2) (UniProt P0DTC9); assay: SEC; observed qualitatively; Figure 6(C) and data not shown
[2] = target: phosphorylated SARS-CoV-2 N construct pN.1-238 (SARS-CoV-2) (UniProt P0DTC9); assay: SEC-MALS

For “untagged full-length human 14-3-3γ (from UniProt P61981 1-247) (natural protein)”, which stoichiometry N (14-3-3γ chains per pN.1-211 chain (2:1)) [1] is on record?
The stoichiometry N (14-3-3γ chains per pN.1-211 chain (2:1)) was 2.

And the stoichiometry N (14-3-3γ chains per pN.1-238 chain (2:1)) [2]?
Its stoichiometry N (14-3-3γ chains per pN.1-238 chain (2:1)) is 2.
